Assay results reported in patent US7135457B1, “Random peptides that bind to gastro-intestinal tract (GIT) transport receptors and related methods” (Cytogen Corporation, priority 1997, dated 2006).
Peptide text beside a SMILES is read from it. * marks the point of attachment. Dansyl = CN(C)c1cccc2c(S(=O)(=O)*)cccc12

Key:
[1] = test system: P100 membrane fractions derived from Caco-2 cells; test: Dansylated peptide ELISA on P100: PAX2 and HAX42 peptides relative binding; conditions: PAX2 peptides, ratio to ZElan021 (HAX42 = 1.00); for Binding value at 20 μg/ml: first 20 μg/ml column
[2] = test system: P100 membrane fractions derived from Caco-2 cells; test: as above; conditions: ratio to ZElan021 (HAX42 = 1.00)
[3] = target: BSA (Bos taurus, UniProt P02769); test: Phage ELISA on BSA (background control protein); type: binding
Sequence of BSA (P02769 25-607): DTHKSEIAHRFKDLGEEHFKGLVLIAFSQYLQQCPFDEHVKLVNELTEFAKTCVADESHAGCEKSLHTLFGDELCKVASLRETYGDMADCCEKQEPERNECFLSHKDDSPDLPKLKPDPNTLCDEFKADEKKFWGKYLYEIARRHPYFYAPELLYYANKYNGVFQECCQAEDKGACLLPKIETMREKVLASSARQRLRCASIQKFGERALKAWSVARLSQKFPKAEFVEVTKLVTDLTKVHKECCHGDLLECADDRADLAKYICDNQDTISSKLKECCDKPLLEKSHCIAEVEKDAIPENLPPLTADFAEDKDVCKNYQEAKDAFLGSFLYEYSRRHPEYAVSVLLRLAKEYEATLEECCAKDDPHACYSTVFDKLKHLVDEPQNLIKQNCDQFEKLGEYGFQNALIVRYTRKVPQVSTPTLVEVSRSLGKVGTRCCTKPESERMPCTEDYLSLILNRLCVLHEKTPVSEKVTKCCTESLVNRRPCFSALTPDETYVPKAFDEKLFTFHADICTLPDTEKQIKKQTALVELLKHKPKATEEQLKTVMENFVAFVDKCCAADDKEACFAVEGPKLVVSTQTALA
Experimental: 96 well plates were coated overnight with GIT receptor, BSA and, optionally, IDE (insulin degrading enzyme, an irrelevant His-fusion protein) or hTF. The plates were blocked for one hour with 0.5% BSA-PBS. After clarification, the amplified phage were diluted 1:100 in 1% BSA plus 0.05% Tween 20 in PBS and added to the plates. Following incubation of the plates on a rotator for 1 to 2 hours, the plates were washed 5 times with 1% BSA plus 0.05% Tween 20 in PBS. Dilute anti-M13-HRP conjugate (anti-M13 antibody linked to horse radish peroxidase (HRP)) was added to all the wells and the plate was incubated for one hour on a rotator. After the plates were washed 5 times, as described above, TMB substrate was added to the wells. The plates were read at 650 nm absorbance.

[4] = Drug potency, peptide loading and size of coacervated particles; type: physicochemical; conditions: formulation 1 particles (coacervation), blend; for Insulin (insulin potency): coated with the named peptide; for Peptide (level of peptide coated onto the particles): measured by fluorescence
[5] = for presence in the systemic circulation (in words): text summary of HPT1 and hPEPT1 pools; for transport from the GIT closed loop into the portal circulation (in words): text summary of hSI, D2H, HPT1, hPEPT1 pools; for presence in the intestine samples or fractions (in words): text summary of the four pools
Experimental: In particular, phages selected in vitro to each receptor or binding site located in the GIT were amplified in E. coli, PEG-precipitated, resuspended in TBS and the titer of each phage sample was determined by plaquing in E. coli as described above. […] Using the in situ loop model described above, 0.5 ml of preselected phage library solution was injected into the tied-off portion of the duodenum/jejunum. Blood was collected into heparinized tubes from the portal vein at 0, 15, 30, 45 and 60 minutes. A blood sample was taken from the systemic circulation at the end of the experiment. Similarly, the portion of the duodenum/jejunum used for phage injection was taken at the end of the experiment.
Thirty microliters of the collected portal blood (neat and 10^−2, 10^−4, 10^−6 dilutions) was added to 30 μl E. coli K91Kan cells (overnight culture) and incubated at 37° C. for 10 min. Subsequently, 3 ml of top agarose was added and the samples were plated for plaques. One hundred microliters of the collected portal blood was added to 100 μl of E. coli K91Kan. Five milliliters of LB medium was then added and the samples were incubated at 37° C. overnight in a rotating microbial incubator. The E. coli was removed by centrifugation and the amplified phage supernatant samples were either titered directly or were PEG-precipitated, resuspended in TBS and titered. Following titration of the amplified phage, samples containing phage from each set of animals were combined, adjusting the titer of each sample to the same titer, and were plated for plaques on LB agar plates (22 cm^2 square plates). Either 12,000 or 24,000 phage were plated for plaques.
Thirty microliters of the collected systemic blood (neat and 10^−2, 10^−4, 10^−6 dilutions) was added to E. coli K91Kan cells, incubated at 37° C. for 10 min. Three ml of top agarose was then added and the samples were plated for plaques. One hundred microliters of the collected systemic blood was added to 100 μl of E. coli K91Kan, incubated at 37° C. for 10 min. Five milliliters of LB medium was then added and the samples were incubated at 37° C. overnight in a rotating microbial incubator. The E. coli was removed by centrifugation and the amplified phage supernatant samples were either titered directly or were PEG-precipitated, resuspended in TBS and titered. Following titration of the amplified phage, samples containing phage from each set of animals were combined, adjusting the titer of each sample to the same titer, and were plated for plaques on LB agar plates (22 cm^2 square plates). Either 12,000 or 24,000 phage were plated for plaques. The intestinal tissue portion used in each closed loop was excised. […] Alternatively, the tissue (in PBS supplemented with protease inhibitors) was homogenized in an Ultra Thorex homogenizer, washed 3 times in PBS containing protease inhibitors and resuspended in PBS containing protease inhibitors (Int-G samples). In each case, serial dilutions (neat and 10^−2, 10^−4, 10^−6 dilutions) of the tissue homogenate was titered in E. coli.
The phage amplified from the portal blood, systemic blood and intestinal tissue was plated for plaques. […] The filters were air-dried, and the DNA was cross-linked to the filter (UV crosslinking: 2 min, high setting). The filters were incubated in pre-hybridization buffer (6×SSC, 5×Denhardt's solution, 0.1% SDS, 20 μg/ml yeast tRNA) at 40° C.-45° C. for at least 60 min.
Synthetic oligonucleotides, (22-mers), complimentary to regions coding for the receptor or binding sites used to create the preselected phage library, were synthesized (see Table 14 below).
The oligonucleotides (5 pmol) were 5′ end labelled with ^32P-ATP and T4 polynucleotide kinase and approximately 2.5 pmol of labelled oligonucleotide was used in hybridization studies. […] The filters were air-dried and exposed for autoradiography for 15 hours, 24 hours or 72 hours.
Hybridization data for pools from each receptor group of rats was compiled.

[6] = test system: fixed Caco-2 or C2BBe1 cells; test: ELISA of GST fusion proteins on fixed Caco-2 or C2BBe1 cells; type: binding
Experimental: Fixed Caco-2, C2BBe1, and A431 cell plates were prepared by growing cells on tissue culture treated microtiter plates. When cells were confluent, plates were fixed with 10% formaldehyde, washed twice with PBS and stored with 0.5% BSA-PBS at −20° C. […] The standard ELISA procedure was followed at this point.
The standard ELISA procedure was modified as follows. GST proteins were diluted to an appropriate concentration in PBS containing 1% BSA and 0.05% Tween20 (1% BPT), titered and incubated one hour at room temperature. Following five washes an anti-GST monoclonal antibody was added (Sigma, St. Louis Clone GST-2 diluted 1:10,000 in 1% BPT) and incubated one hour. After five more washes goat anti-mouse IgG2b-HRP was added (Southern Biotechnology Associates Inc., Birmingham, Ala., diluted 1:4000 in 1% BPT) and incubated one hour. After five washes plates were developed with TMB peroxidase substrate (Kirkegard and Perry, Gaithersburg, Md.). All data is presented with background binding subtracted.

[7] = test system: fixed Caco-2 cells; test: Effect of thrombin cleavage on binding of GST-peptide fusions to fixed Caco-2 cells
Experimental: Binding of intact and thrombin-cleaved GST-peptide fusions to fixed Caco-2 cells was compared.
Thirty micrograms of each GST-peptide was treated with bovine thrombin (1μ/ml; 0.4 NIH units; Sigma CN.T9681) for 18 h at room temperature in 20 mM Tris-HCl pH8.0, 150 mM NaCl, 2.5 mM CaCl2. Controls were similarly treated without addition of thrombin. Ten micrograms of each GST-peptide fusion was removed for PAGE analysis, and 10 μg of fusions were added in duplicate to the fixed Caco-2 cells before 5-fold serial dilutions (1% BPT diluent). The fusions were allowed to bind for 1 h at room temperature. Following 6 washes with 1% BPT, binding was assayed by ELISA.

[8] = Crossreactive binding of GST fusions to dansylated peptides
[9] = test system: P100 membrane fraction derived from Caco-2 cells; test: GST-PAX2 peptides relative binding to P100 fractions; conditions: 20 μg/ml; binding to plastic subtracted; GST-HAX42 = 1.00
Experimental: The peptides and proteins were analyzed by a dansylated peptide ELISA method in which 96 well plates were coated overnight at 4° C. with 100 μl/well coating protein (normally 100 μg/ml P100 membrane fraction) in 0.05M carbonate buffer pH9.6. Nonspecific binding was blocked using 200 μl/well, 2% Marvel/PBS for 2 hours at 37° C. prior to incubation with dansylated peptides. The plates were washed three times with PBS/0.05% Tween 20 and after each subsequent incubation step. […] A buffer blank control was included to ensure that background binding to plastic was not due to the antibodies used in the assay system. […] The plates were then incubated with an anti-mouse λ-HRP conjugated antibody (Southern Biotech 1060-05) at a 1:10,000 dilution in blocking solution, 100 μl/well for 1 hour at room temperature. Plates were developed using 75 μl/well Bionostics TMB substrate and incubated for approximately 10 minutes. The developing reaction was stopped using Bionostics Red Stop solution (25 μl/well), and the optical density of the plates was read at 650 nm.
After subtraction of the GST-peptide binding to plastic from P100 binding values, the binding of GST-PAX2 peptides were represented as a ratio of GST-HAX42 binding to P100, which was given the arbitrary value of 1.00. The following ratios were determined from binding to P100 of GST-peptides at a peptide concentration of 20 μg/ml. Bold denotes positive binding to the P100 membrane fraction.

C[C@H](NC(=O)[C@H](CCCNC(=N)N)NC(=O)[C@H](CCCNC(=N)N)NC(=O)[C@H](CC(N)=O)NC(=O)[C@H](Cc1c[nH]cn1)NC(=O)[C@H](CO)NC(=O)[C@H](CO)NC(=O)[C@@H](N)CCCCNS(=O)(=O)c1cccc2c(N(C)C)cccc12)C(=O)N[C@@H](CCCNC(=N)N)C(=O)N[C@H](C(=O)N[C@@H](CCCNC(=N)N)C(N)=O)[C@@H](C)O [ZElan079] (H-K(Dansyl)SSHNRRARTR-NH2)
Binding value at 50 μg/ml (Southern Ab) [1]: 0.53
Binding value at 20 μg/ml [1]: 0.31
Binding value at 50 μg/ml ([1]; first 50 μg/ml column): 0.97
Binding value at 50 μg/ml ([1]; second 50 μg/ml column): 0.68
Binding value at 50 μg/ml (Jackson Ab) [2]: 0.83

CC(C)C[C@H](NC(=O)[C@H](CCCNC(=N)N)NC(=O)[C@H](CCCNC(=N)N)NC(=O)[C@H](CC(N)=O)NC(=O)[C@H](Cc1c[nH]cn1)NC(=O)[C@H](CO)NC(=O)[C@H](CO)NC(=O)[C@@H](N)CCCCNS(=O)(=O)c1cccc2c(N(C)C)cccc12)C(=O)N[C@@H](C)C(=O)N[C@H](C(=O)N[C@@H](CCCNC(=N)N)C(N)=O)[C@@H](C)O [ZElan080] (H-K(Dansyl)SSHNRRLATR-NH2)
Binding value at 50 μg/ml (Southern Ab) [1]: 0.38
Binding value at 20 μg/ml [1]: 0.23
Binding value at 50 μg/ml ([1]; first 50 μg/ml column): 0.84
Binding value at 50 μg/ml ([1]; second 50 μg/ml column): 0.45
Binding value at 50 μg/ml (Jackson Ab) [2]: 0.67

RVGQCTDSDVRRPWARSCAHQGCGAGTRNSHGCITRPLRQASAH [SNi10]
BSA ([3]; Table 1, phage panned on hSI): 0.051 OD
Insulin (insulin potency) [4]: 59.5 mg/g
Peptide (level of peptide coated onto the particles) [4]: 1.75 µL/mg

RYKHDIGCDAGVDKKSSSVRGGCGAHSSPPRAGRGPRGTMVSRL [DCX8]
BSA ([3]; Table 3): 0.063 OD
Insulin (insulin potency) [4]: 59.1 mg/g
Peptide (level of peptide coated onto the particles) [4]: 1.87 µL/mg

SARDSGPAEDGSRAVRLNGVENANTRKSSRSNPRGRRHP [Peptide P31]
BSA ([3]; Table 4): 0.075 OD
presence in the systemic circulation (in words) [5]: found in the systemic circulation
transport from the GIT closed loop into the portal circulation (in words) [5]: found in the portal circulation
presence in the intestine samples or fractions (in words) [5]: preferential binding
Insulin (insulin potency) [4]: 67.0 mg/g
Peptide (level of peptide coated onto the particles) [4]: 1.22 µL/mg

SDHALGTNLRSDNAKEPGDYNCCGNGNSTGRKVFNRRRPSAIPT [HAX42]
BSA ([3]; Table 5): 0.071 OD
presence in the systemic circulation (in words) [5]: found in the portal and systemic circulation
transport from the GIT closed loop into the portal circulation (in words) [5]: found in the portal and systemic circulation
Insulin (insulin potency) [4]: 55.9 mg/g
Peptide (level of peptide coated onto the particles) [4]: 2.93 µL/mg

SQGSKQCMQYRTGRLTVGSEYGCGMNPARHATPAYPARLLPRYR [DCX11]
BSA ([3]; Table 3): 0.071 OD
transport from the GIT closed loop into the portal circulation (in words) [5]: preferably transported
presence in the intestine samples or fractions (in words) [5]: found in the intestinal samples fractions

gst-ENANTRKSSRSNPRGRRHP [GST-P31.103]
binding of truncated GST fusion compared with full-length, fixed Caco-2 cells ([6]; Caco-2): bound almost as well as full-length P31
effect of thrombin cleavage on detection of binding to fixed Caco-2 cells ([7]; Caco-2): significantly reduced

gst-RVGQCTDSDVRRPWARSCAHQGCGAGTRNSHGCITRPLRQASAH [GST-SNi10]
binding to fixed Caco-2 or C2BBe1 cells relative to GST control ([6]; anti-GST ELISA): bound
effect of thrombin cleavage on detection of binding to fixed Caco-2 cells ([7]; thrombin 18 h at room temperature): significantly reduced

gst-SDHALGTNLRSDNAKEPGDYNCCGNGNSTGRXVFNRRRPSAIPT [GST-HAX42]
binding to fixed Caco-2 or C2BBe1 cells relative to GST control ([6]; Caco-2): weak to moderate binding
crossreactivity to ZElan018 (PAX2) and ZElan021 (HAX42) ([8]; 5 μg/ml GST fusion): exhibited crossreactivity
Value: binding to P100 as a ratio of GST-HAX42 binding [9]: 1.00

gst-STPPSREAYSRPYSVDSDSDTNAKHSSHNRRLRTRSRPN [GST-PAX2]
binding to fixed Caco-2 or C2BBe1 cells relative to GST control ([6]; Caco-2): bound
crossreactive binding to ZElan024 (P31) and ZElan018 (PAX2) ([8]; 0.5 μg/ml GST fusion): no crossreactive binding
Value: binding to P100 as a ratio of GST-HAX42 binding [9]: 1.79

gst-TNAKHSSHNRRLRTRSRPN [GST-106]
binding of truncated GST fusion compared with full-length, fixed Caco-2 cells ([6]; Caco-2): bound similarly to full-length PAX2
effect of thrombin cleavage on detection of binding to fixed Caco-2 cells ([7]; Caco-2): significantly reduced
Value: binding to P100 as a ratio of GST-HAX42 binding [9]: 2.71
